The record followed here is the supplement of paper PMC5998384.

The test system of series [1] is HeLa Kyoto. The series is described as follows: solubility change mitosis vs G1/S (difference of NP-40 vs SDS log2 ratios) (log2 ratio difference); higher = more soluble in mitosis.
The test system of series [2] is HeLa Kyoto. Nature of the series: solubility in G1/S (NP-40 vs SDS abundance) (log2 ratio); higher = more soluble. As to conditions: cell cycle stage: G1/S.
For series [3], the system named is HeLa Kyoto. Nature of the series: thermal stability score vs G1/S (z-score of summed log2 fold changes over temperatures); higher = more thermally stable than in G1/S.
Series [4] has as its system HeLa Kyoto. Nature of the series: melting temperature (median over replicates), in situ; higher = more thermally stable.
[5] abbreviates: cell cycle stage: early G1 (4.5 h after nocodazole release).
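For melting temperature (median over replicates), in situ in this document: HeLa Kyoto cells synchronized by double thymidine or nocodazole block, proteins quantified by TMT10plex mass spectrometry, three independent biological replicates.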
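For solubility change mitosis vs G1/S (difference of NP-40 vs SDS log2 ratios) in this document: synchronized HeLa Kyoto cells (double thymidine block for G1/S, nocodazole release for mitosis), protein amounts in NP-40 versus SDS lysates quantified by mass spectrometry, three biological replicates.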
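For solubility in G1/S (NP-40 vs SDS abundance) in this document: HeLa Kyoto cells arrested at G1/S by double thymidine block, proteins quantified by TMT10plex mass spectrometry in mild NP-40 versus SDS extracts, three biological replicates.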
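For thermal stability score vs G1/S (z-score of summed log2 fold changes over temperatures) in this document: synchronized HeLa Kyoto cells, proteins quantified by TMT10plex mass spectrometry, three biological replicates, mitosis taken 0.5 h after nocodazole release, G1/S directly after double thymidine block.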

“MYRALRLLARSRPLVRAPAAALASAPGLGGAAVPSFWPPNAARMASQNSFRIEYDTFGELKVPNDKYYGAQTVRSTMNFKIGGVTERMPTPVIKAFGILKRAAAEVNQDYGLDPKIANAIMKAADEVAEGKLNDHFPLVVWQTGSGTQTNMNVNEVISNRAIEMLGGELGSKIPVHPNDHVNKSQSSNDTFPTAMHIAAAIEVHEVLLPGLQKLHDALDAKSKEFAQIIKIGRTHTQDAVPLTLGQEFSGYVQQVKYAMTRIKAAMPRIYELAAGGTAVGTGLNTRIGFAEKVAAKVAALTGLPFVTAPNKFEALAAHDALVELSGAMNTTACSLMKIANDIRFLGSGPRSGLGELILPENEPGSSIMPGKVNPTQCEAMTMVAAQVMGNHVAVTVGGSNGHFELNVFKPMMIKNVLHSARLLGDASVSFTENCVVGIQANTERINKLMNESLMLVTALNPHIGYDKAAKIAKTAHKNGSTLKETAIELGYLTAEQFDEWVKPKDMLGPK [FH]”: in the series with HeLa Kyoto [1], the “solubility change mitosis (log2)” value is 0.0382. Besides, the “solubility in G1/S (log2)” value with HeLa Kyoto [2] was determined as 0.478. Also, the thermal stability score in the series on HeLa Kyoto [3] (setting [5]) was 1.14; with HeLa Kyoto [3] (cell cycle stage: mitosis) it was -0.915. The results for the melting temperature in the series on HeLa Kyoto [4] (cell cycle stage: G1/S) and in the series on HeLa Kyoto [4] (cell cycle stage: mitosis) were 53.5 °C and 53.4 °C, respectively.

Take “MVSRVQLPPEIQLAQRLAGNEQVTRDRAVRKLRKYIVARTQRAAGGFTHDELLKVWKGLFYCMWMQDKPLLQEELGRTISQLVHAFQTTEAQHLFLQAFWQTMNREWTGIDRLRLDKFYMLMRMVLNESLKVLKMQGWEERQIEELLELLMTEILHPSSQAPNGVKSHFIEIFLEELTKVGAEELTADQNLKFIDPFCRIAARTKDSLVLNNITRGIFETIVEQAPLAIEDLLNELDTQDEEVASDSDESSEGGERGDALSQKRSEKPPAGSICRAEPEAGEEQAGDDRDSGGPVLQFDYEAVANRLFEMASRQSTPSQNRKRLYKVIRKLQDLAGGIFPEDEIPEKACRRLLEGRRQKKTKKQKRLLRLQQERGKGEKEPPSPGMERKRSRRRGVGADPEARAEAGEQPGTAERALLRDQPRGRGQRGARQRRRTPRPLTSARAKAANVQEPEKKKKRRE [RRP1]”: the “solubility change mitosis (log2)” value in the series with HeLa Kyoto [1] was determined as 0.797. The “solubility in G1/S (log2)” value in the series with HeLa Kyoto [2] was -1.24. The thermal stability score in the series on HeLa Kyoto [3] (setting [5]) was 2.67; in the series with HeLa Kyoto [3] (cell cycle stage: mitosis), 7.98. Besides, the melting temperature with HeLa Kyoto [4] (cell cycle stage: G1/S) amounted to 46.6 °C; in the series on HeLa Kyoto [4] (cell cycle stage: mitosis), 48.8 °C.

In the case of “MAAPDLSTNLQEEATCAICLDYFTDPVMTDCGHNFCRECIRRCWGQPEGPYACPECRELSPQRNLRPNRPLAKMAEMARRLHPPSPVPQGVCPAHREPLAAFCGDELRLLCAACERSGEHWAHRVRPLQDAAEDLKAKLEKSLEHLRKQMQDALLFQAQADETCVLWQKMVESQRQNVLGEFERLRRLLAEEEQQLLQRLEEEELEVLPRLREGAAHLGQQSAHLAELIAELEGRCQLPALGLLQDIKDALRRVQDVKLQPPEVVPMELRTVCRVPGLVETLRRFRGDVTLDPDTANPELILSEDRRSVQRGDLRQALPDSPERFDPGPCVLGQERFTSGRHYWEVEVGDRTSWALGVCRENVNRKEKGELSAGNGFWILVFLGSYYNSSERALAPLRDPPRRVGIFLDYEAGHLSFYSATDGSLLFIFPEIPFSGTLRPLFSPLSSSPTPMTICRPKGGSGDTLAPQ [TRIM11]”, the “solubility change mitosis (log2)” value with HeLa Kyoto [1] was -0.192. In addition, the “solubility in G1/S (log2)” value in the series on HeLa Kyoto [2] came out at 0.185. For the same sequence, the thermal stability score with HeLa Kyoto [3] (setting [5]) was found to be 0.605; with HeLa Kyoto [3] (cell cycle stage: mitosis), 0.584. Further, the melting temperature came out at 50.8 °C with HeLa Kyoto [4] (cell cycle stage: G1/S) and 49.4 °C with HeLa Kyoto [4] (cell cycle stage: mitosis).

Turning to “MGGFFSSIFSSLFGTREMRILILGLDGAGKTTILYRLQVGEVVTTIPTIGFNVETVTYKNLKFQVWDLGGQTSIRPYWRCYYSNTDAVIYVVDSCDRDRIGISKSELVAMLEEEELRKAILVVFANKQDMEQAMTSSEMANSLGLPALKDRKWQIFKTSATKGTGLDEAMEWLVETLKSRQ [ARL1]”, in the series on HeLa Kyoto [1], the “solubility change mitosis (log2)” value is -0.202. The “solubility in G1/S (log2)” value in the series on HeLa Kyoto [2] is -0.143. In addition, the thermal stability score is 2.08 with HeLa Kyoto [3] (setting [5]) and -0.342 in the series with HeLa Kyoto [3] (cell cycle stage: mitosis). Further, the melting temperature stood at 50.3 °C in the series with HeLa Kyoto [4] (cell cycle stage: G1/S) and 50.9 °C in the series with HeLa Kyoto [4] (cell cycle stage: mitosis).

Take “MKVTVCFGRTRVVVPCGDGHMKVFSLIQQAVTRYRKAIAKDPNYWIQVHRLEHGDGGILDLDDILCDVADDKDRLVAVFDEQDPHHGGDGTSASSTGTQSPEIFGSELGTNNVSAFQPYQATSEIEVTPSVLRANMPLHVRRSSDPALIGLSTSVSDSNFSSEEPSRKNPTRWSTTAGFLKQNTAGSPKTCDRKKDENYRSLPRDTSNWSNQFQRDNARSSLSASHPMVGKWLEKQEQDEDGTEEDNSRVEPVGHADTGLEHIPNFSLDDMVKLVEVPNDGGPLGIHVVPFSARGGRTLGLLVKRLEKGGKAEHENLFRENDCIVRINDGDLRNRRFEQAQHMFRQAMRTPIIWFHVVPAANKEQYEQLSQSEKNNYYSSRFSPDSQYIDNRSVNSAGLHTVQRAPRLNHPPEQIDSHSRLPHSAHPSGKPPSAPASAPQNVFSTTVSSGYNTKKIGKRLNIQLKKGTEGLGFSITSRDVTIGGSAPIYVKNILPRGAAIQDGRLKAGDRLIEVNGVDLVGKSQEEVVSLLRSTKMEGTVSLLVFRQEDAFHPRELNAEPSQMQIPKETKAEDEDIVLTPDGTREFLTFEVPLNDSGSAGLGVSVKGNRSKENHADLGIFVKSIINGGAASKDGRLRVNDQLIAVNGESLLGKTNQDAMETLRRSMSTEGNKRGMIQLIVARRISKCNELKSPGSPPGPELPIETALDDRERRISHSLYSGIEGLDESPSRNAALSRIMGESGKYQLSPTVNMPQDDTVIIEDDRLPVLPPHLSDQSSSSSHDDVGFVTADAGTWAKAAISDSADCSLSPDVDPVLAFQREGFGRQSMSEKRTKQFSDASQLDFVKTRKSKSMDLGIADETKLNTVDDQKAGSPSRDVGPSLGLKKSSSLESLQTAVAEVTLNGDIPFHRPRPRIIRGRGCNESFRAAIDKSYDKPAVDDDDEGMETLEEDTEESSRSGRESVSTASDQPSHSLERQMNGNQEKGDKTDRKKDKTGKEKKKDRDKEKDKMKAKKGMLKGLGDMFRFGKHRKDDKIEKTGKIKIQESFTSEEERIRMKQEQERIQAKTREFRERQARERDYAEIQDFHRTFGCDDELMYGGVSSYEGSMALNARPQSPREGHMMDALYAQVKKPRNSKPSPVDSNRSTPSNHDRIQRLRQEFQQAKQDEDVEDRRRTYSFEQPWPNARPATQSGRHSVSVEVQMQRQRQEERESSQQAQRQYSSLPRQSRKNASSVSQDSWEQNYSPGEGFQSAKENPRYSSYQGSRNGYLGGHGFNARVMLETQELLRQEQRRKEQQMKKQPPSEGPSNYDSYKKVQDPSYAPPKGPFRQDVPPSPSQVARLNRLQTPEKGRPFYS [PARD3]”: in the series with HeLa Kyoto [1], the “solubility change mitosis (log2)” value was determined as 0.111. Moreover, the “solubility in G1/S (log2)” value in the series on HeLa Kyoto [2] was -0.137. Besides, the thermal stability score with HeLa Kyoto [3] (setting [5]) amounted to 0.772; in the series with HeLa Kyoto [3] (cell cycle stage: mitosis) it was 2.38. The melting temperature in the series with HeLa Kyoto [4] (cell cycle stage: G1/S) was found to be 47.7 °C; with HeLa Kyoto [4] (cell cycle stage: mitosis), 49.3 °C.

Take “MAQFVRNLVEKTPALVNAAVTYSKPRLATFWYYAKVELVPPTPAEIPRAIQSLKKIVNSAQTGSFKQLTVKEAVLNGLVATEVLMWFYVGEIIGKRGIIGYDV [ATP5L]”: the “solubility change mitosis (log2)” value with HeLa Kyoto [1] came to 0.0203. Also, the “solubility in G1/S (log2)” value with HeLa Kyoto [2] is -0.573. Moreover, the thermal stability score in the series with HeLa Kyoto [3] (setting [5]) is -1.18; in the series on HeLa Kyoto [3] (cell cycle stage: mitosis), -2.02. Moreover, the melting temperature in the series on HeLa Kyoto [4] (cell cycle stage: G1/S) was 55 °C; in the series with HeLa Kyoto [4] (cell cycle stage: mitosis) it was 52.8 °C.
